Positions count from the first letter of the chain named. Numbers in names are those of the source.

Drawing on PMC8509576, “Loops around the Heme Pocket Have a Critical Role in the Function and Stability of BsDyP from Bacillus subtilis” (International Journal of Molecular Sciences, 2021), this text covers Km, kcat and kcat/Km for five proteins.

Substrate in data set [1]: COc1cccc(OC)c1O
Description: steady-state kinetics, oxidation followed by absorbance. The class given is biochemical, Bacillus subtilis. An excerpt: steady-state kinetics, oxidation followed by absorbance on BsDyP

Substrate in data set [2]: CCn1c(=NN=c2sc3cc(S(=O)(=O)O)ccc3n2CC)sc2cc(S(=O)(=O)O)ccc21
Description: steady-state kinetics, ABTS oxidation. The class given is biochemical, Bacillus subtilis. As to conditions: one kcat column shared with H2O2. An excerpt:
steady-state kinetics, ABTS oxidation on BsDyP

Where [3] appears, read: 0.2 mM H2O2, sodium phosphate buffer pH 3.8, 25 °C, apparent, rates per holoprotein.
[4] abbreviates: 0.2 mM H2O2, pH 4.2, 25 °C, apparent.
The mark [5] stands for this setting: variant 54D6, 0.6 mM H2O2, sodium phosphate buffer pH 3.8, 25 °C.
[6] abbreviates: variant 54D6, 0.6 mM H2O2, pH 4.2, 25 °C.
Where [7] appears, read: variant 3G5, 0.6 mM H2O2, sodium phosphate buffer pH 3.8, 25 °C.
[8] abbreviates: variant 3G5, 0.6 mM H2O2, pH 4.2, 25 °C.
Setting [9] is: variant 1F9, 0.6 mM H2O2, sodium phosphate buffer pH 3.8, 25 °C.
The mark [10] stands for this setting: variant 1F9, 0.6 mM H2O2, pH 4.2, 25 °C.
The mark [11] stands for this setting: variant 5G5, 0.6 mM H2O2, sodium phosphate buffer pH 3.8, 25 °C.
Setting [12] is: variant 5G5, 0.6 mM H2O2, pH 4.2, 25 °C.

B1: BsDyP (Bacillus subtilis subsp. subtilis str. 168; A45M) (protein)
chain: MKPSKKDEKEEEQIVPFYGKHQAGITTAHQTYVYFAALDVTAKDKSDIITLFRNWTSLTQMLTSGKKMSAEQRNQYLPPQDTGESADLSPSNLTVTFGFGPGFFEKDGKDRFGLKSKKPKHLAALPAMPNDNLDEKQGGGDICIQVCADDEQVAFHALRNLLNQAVGTCEVRFVNKGFLSGGKNGETPRNLFGFKDGTGNQSTKDDTLMNSIVWIQSGEPDWMTGGTYMAFRKIKMFLEVWDRSSLKDQEDTFGRRKSSGAPFGQKKETDPVKLNQIPSNSHVSLAKSTGKQILRRAFSYTEGLDPKTGYMDAGLLFISFQKNPDNQFIPMLKALSAKDALNEYTQTIGSALYACPGGCKKGEYIAQRLLES
notes: Tat signal peptide (residues 1-45) deleted, A45M new start codon, plasmid pVB4 (pET-21a), no tag told; expressed in E. coli Tuner(DE3); called wild-type BsDyP; precursor 416 residues
Usually Km stands for the concentration of substrate that gives half-maximal velocity. For orientation: kcat means the number of substrate molecules converted per active site and unit of time at saturation. By kcat/Km is commonly meant the turnover number divided by the Michaelis constant. For the protein B1, in data set [1] (setting [3]), the Km was found to be 60 ± 10 µM, the kcat was found to be 0.42 ± 0.03 s⁻¹ and the kcat/Km came out at 7000 ± 1000 M⁻¹ s⁻¹. Besides, in data set [2] (setting [4]), the Km is 420 ± 30 µM, the kcat is 14.2 ± 1.0 s⁻¹ and the kcat/Km worked out at 36000 ± 3000 M⁻¹ s⁻¹.

B2: BsDyP (Bacillus subtilis subsp. subtilis str. 168; A45M/K317E/S325P) (protein)
chain: B1 chain with K273E, S281P
notes: as for B1
As to B2, in data set [1] (setting [5]), the Michaelis-Menten constant (Km) worked out at 600 ± 10 µM, the turnover number (kcat) amounted to 1 ± 0.1 s⁻¹ and the kcat/Km was 1600 ± 500 M⁻¹ s⁻¹. In data set [2] (setting [6]), the Km turned out to be 800 ± 140 µM, the kcat was determined as 47.7 ± 2.9 s⁻¹ and the kcat/Km stood at 60000 ± 11000 M⁻¹ s⁻¹.

B3: BsDyP (Bacillus subtilis subsp. subtilis str. 168; A330V/A45M/L166Q/T296S/V284A) (protein)
chain: B1 chain with L122Q, V240A, T252S, A286V
notes: as for B1
Consider B3, for which, in data set [1] (setting [7]), the Km stood at 90 ± 10 µM, the kcat is 0.8 ± 0.1 s⁻¹ and the catalytic efficiency (kcat/Km) was determined as 9000 ± 1000 M⁻¹ s⁻¹. In data set [2] (setting [8]), the Michaelis-Menten constant (Km) came to 1370 ± 250 µM, the catalytic constant (kcat) came out at 28.1 ± 2.1 s⁻¹ and the kcat/Km turned out to be 25000 ± 5000 M⁻¹ s⁻¹.

B4: BsDyP (Bacillus subtilis subsp. subtilis str. 168; A45M/S325P) (protein)
chain: B1 chain with S281P
notes: as for B1
In the case of B4, in data set [1] (setting [9]), the Michaelis-Menten constant (Km) was found to be 150 ± 10 µM, the turnover number (kcat) worked out at 0.83 ± 0.04 s⁻¹ and the catalytic efficiency (kcat/Km) was 5500 ± 400 M⁻¹ s⁻¹. In addition, in data set [2] (setting [10]), the Km turned out to be 890 ± 100 µM, the turnover number (kcat) worked out at 50.4 ± 1.4 s⁻¹ and the kcat/Km was found to be 58000 ± 7000 M⁻¹ s⁻¹.

B5: BsDyP (Bacillus subtilis subsp. subtilis str. 168; A330V/A45M/K317E/S325P) (protein)
chain: B1 chain with K273E, S281P, A286V
notes: as for B1
Take B5: in data set [1] (setting [11]), the Km was 700 ± 100 µM, the turnover number (kcat) was 2.8 ± 0.1 s⁻¹ and the kcat/Km was 3800 ± 200 M⁻¹ s⁻¹. Further, in data set [2] (setting [12]), the Michaelis constant (Km) was 1290 ± 190 µM, the turnover number (kcat) stood at 56.1 ± 1.9 s⁻¹ and the kcat/Km came out at 42000 ± 6000 M⁻¹ s⁻¹.
